This assay has as its target T1, MBP-TNFR1^ECD deletion mutant ΔCRD1 (human, UniProt P19438 22-211).
T1 chain: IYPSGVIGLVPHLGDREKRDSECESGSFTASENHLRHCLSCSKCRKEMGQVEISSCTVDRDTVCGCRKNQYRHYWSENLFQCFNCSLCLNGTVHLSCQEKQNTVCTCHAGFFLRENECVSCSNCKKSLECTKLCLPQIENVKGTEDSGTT
Nature of the assay: ITC. In general terms: Isothermal titration calorimetry measures the heat released or taken up as one component is titrated into another.

B1: Staphylococcal superantigen-like protein 10 (SSL10), residues 31-227, C-terminal 6xHis (natural protein)
chain: KQNQKSVNKHDKEALYRYYTGKTMEMKNISALKHGKNNLRFKFRGIKIQVLLPGNDKSKFQQRSYEGLDVFFVQEKRDKHDIFYTVGGVIQNNKTSGVVSAPILNISKEKGEDAFVKGYPYYIKKEKITLKELDYKLRKHLIEKYGLYKTISKDGRVKISLKDGSFYNLDLRSKLKFKYMGEVIESKQIKDIEVNLK
As for B1, the Kd (commonly the free concentration of one partner at which half of the binding sites on the other are occupied at equilibrium, for simple one-to-one binding) was 11.1 µM. That is a double-digit micromolar value.

The values are drawn from publication PMC9374677 (2022).
